Assay results reported in patent publication US20170035908A1 (published 2017).

Molecular target: T1, PAM4 antigen (pancreatic cancer mucin, CaPan1 human pancreatic tumor)
T1 construct: also called CaPan1 Ag; CaPan1 antigens
Test: ELISA on target mucin antigen (FIG. 9)

EC50: 1.31 nM
B1: humanized PAM4 antibody (antibody, V domains shown)
VH: QVQLQQSGAEVKKPGASVKVSCEASGYTFPSYVLHWVKQAPGQGLEWIGYINPYNDGTQYNEKFKGKATLTRDTSINTAYMELSRLRSDDTAVYYCARGFGGSYGFAYWGQGTLVTVSS
VL: DIQLTQSPSSLSASVGDRVTMTCSASSSVSSSYLYWYQQKPGKAPKLWIYSTSNLASGVPARFSGSGSGTDFTLTISSLQPEDSASYFCHQWNRYPYTFGGGTRLEIKR
notes: also called hPAM4; hPAM4 IgG
